Article PMC2829124

Substrate: CCCCCCCCCCCCCC(=O)SCCNC(=O)CCNC(=O)[C@H](O)C(C)(C)COP(=O)(O)OP(=O)(O)OC[C@H]1O[C@@H](n2cnc3c(N)ncnc32)[C@H](O)[C@@H]1OP(=O)(O)O
Test: purified protein
Settings: fatty acyl-CoA binding site

B1: N-Myristoyltransferase (LdNMT) (Leishmania donovani) (protein)
chain: MSRNPSNSDAAHAFWSTQPVPQTEDETEKIVFAGPMDEPKTVADIPEEPYPIASTFEWWTPNMEAADDIHAIYELLRDNYVEDDDSMFRFNYSEEFLQWALCPPSYIPDWHVAVRRKADKKLLAFIAGVPVTLRMGTPKYMKVKAQEKGQEEEAAKYDAPRHICEINFLCVHKQLREKRLAPILIKEVTRRVNRTNVWQAVYTAGVLLPTPYASGQYFHRSLNPEKLVEIRFSGIPAQYQKFQNPMAMLKRNYQLPNAPKNSGLREMKPSDVPQVRRILMNYLDNFDVGPVFSDAEISHYLLPRDGVVFTYVVENDKKVTDFFSFYRIPSTVIGNSNYNILNAAYVHYYAATSMPLHQLILDLLIVAHSRGFDVCNMVEILDNRSFVEQLKFGAGDGHLRYYFYNWAYPKIKPSQVALVML
With B1 the Km was 0.0175 ± 0.0029 µM.
